# The supplement of paper PMC9112550, “Optimization of the antimicrobial peptide Bac7 by deep mutational scanning” (BMC Biology, 2022)
# Tested on: Escherichia coli TOP10
# Experiment: shrunken log2 fold change of peptide-encoding DNA abundance (4.5 h post-induction vs induction); higher = less antimicrobial activity (less host growth inhibition)
# Settings: time post-induction: 4.5 h; library: site-saturation at positions 5, 18, 19, 20
# 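Note: peptides expressed intracellularly from a pBAD plasmid library in pooled LB shake-flask culture, induced with 0.3% L-arabinose, DNA abundance read by NGS, three biological replicates, DESeq2 with apeglm shrinkage.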
row,Sequence,shrunken log2 fold change
1,RRIRCRPPRLPRPRPRPHGDPRP,-0.0473
2,RRIRGRPPRLPRPRPRPLIGPRP,0.561
3,RRIRQRPPRLPRPRPRPIMMPRP,-0.0173
4,RRIRERPPRLPRPRPRPCLRPRP,0.0836
5,RRIRHRPPRLPRPRPRPRFHPRP,-0.162
6,RRIRQRPPRLPRPRPRPNNKPRP,-0.721
7,RRIRCRPPRLPRPRPRPFGWPRP,0.24
8,RRIRERPPRLPRPRPRPDGLPRP,0.0424
9,RRIRNRPPRLPRPRPRPQWSPRP,0.129
10,RRIRMRPPRLPRPRPRPAHQPRP,0.397
11,RRIRHRPPRLPRPRPRPSFFPRP,-0.41
12,RRIRIRPPRLPRPRPRPGCLPRP,1.56
13,RRIRRRPPRLPRPRPRPGGTPRP,0.245
14,RRIRIRPPRLPRPRPRPASQPRP,-0.073
15,RRIRCRPPRLPRPRPRPFLFPRP,-0.291
16,RRIRLRPPRLPRPRPRPKVTPRP,-0.00182
17,RRIRQRPPRLPRPRPRPNRPPRP,-0.056
18,RRIRQRPPRLPRPRPRPCFDPRP,-0.103
19,RRIRVRPPRLPRPRPRPWSYPRP,-0.0283
20,RRIRKRPPRLPRPRPRPCRDPRP,-0.136
21,RRIRFRPPRLPRPRPRPDFWPRP,0.0889
22,RRIRYRPPRLPRPRPRPKITPRP,-0.57
23,RRIRSRPPRLPRPRPRPPEDPRP,0.0304
24,RRIRIRPPRLPRPRPRPTRQPRP,-0.00609
25,RRIRIRPPRLPRPRPRPNEMPRP,-0.0277

row,Sequence,shrunken log2 fold change
1,RRIRWRPPRLPRPRPRPRSGPRP,0.345
2,RRIRCRPPRLPRPRPRPVKHPRP,-0.263
3,RRIRYRPPRLPRPRPRPVRLPRP,-0.0236
4,RRIRTRPPRLPRPRPRPIYTPRP,-0.46
5,RRIRCRPPRLPRPRPRPRMFPRP,0.0907
6,RRIRRRPPRLPRPRPRPTQQPRP,0.707
7,RRIRCRPPRLPRPRPRPNQHPRP,-0.337
8,RRIRRRPPRLPRPRPRPHRRPRP,-0.000685
9,RRIRNRPPRLPRPRPRPDNIPRP,-0.312
10,RRIRCRPPRLPRPRPRPFPVPRP,0.11
11,RRIRSRPPRLPRPRPRPWYMPRP,-0.262
12,RRIRQRPPRLPRPRPRPKEMPRP,0.229
13,RRIRQRPPRLPRPRPRPMEDPRP,-0.00192
14,RRIRLRPPRLPRPRPRPAPKPRP,0.659
15,RRIRVRPPRLPRPRPRPHIVPRP,-0.165
16,RRIRQRPPRLPRPRPRPTVRPRP,0.0397
17,RRIRCRPPRLPRPRPRPLWMPRP,-0.378
18,RRIRMRPPRLPRPRPRPIQNPRP,-0.157
19,RRIRMRPPRLPRPRPRPEHLPRP,0.417
20,RRIRRRPPRLPRPRPRPDAMPRP,0.336
21,RRIRSRPPRLPRPRPRPFWNPRP,-0.139
22,RRIRCRPPRLPRPRPRPGYTPRP,0.00337
23,RRIRTRPPRLPRPRPRPYMVPRP,-1.93
24,RRIRMRPPRLPRPRPRPGAVPRP,0.873
25,RRIRMRPPRLPRPRPRPRGIPRP,0.0677
